Measured values from patent US20160031977A1 (BETH ISRAEL DEACONESS MEDICAL CENTER, published 2016).
Values belong to the binder of their own block, whether it stands above or below them. Square brackets hold non-standard residues; d marks the D form. Ends that are not written are not given here. pT = C[C@@H](OP(=O)(O)O)[C@H](N)C(=O)O

Target: T1, pT231-tau peptide locked in trans (pT231-Ala)
T1 construct: also called trans pT231-tau peptide
T1 peptide: KVAVVR[pT]APKSPS
Assay: ELISA, hybridoma culture supernatant on peptide
Protocol: To develop cis and trans pT231-tau mouse mAbs, 74% cis pT231-Pip tau peptide as described previously in Nakamura et al., Cell 149: 232-244, 2012 was used to immunize mice. The procedure produced 480 hybridoma clones that were then characterized. […] The nucleic acid and protein sequences including the CDRs of the mAb heavy chain and light chain are shown below. […] The DNA sequences of the heavy and light chains of the mAbs were determined using 5′ RACE RT-PCR techniques, as described in Bradbury et al., Neurobiol Aging 16:465-475, 1995. […] Predicted protein sequences are highly conserved in Framework regions, with clear differences in complementary determining region (CDR) 1-3 (FIGS. 8 and 9).

binding result: no binding
B1: Cis mAb-#74 (antibody, V domains shown)
VH: DVQLQESGPGLVKPSQSLSLTCSVTGYSITSGYYWNWIRQFPGNKLEWMGYISYDGSNNYNPSLKNRISITRDTSKNQFFLKLNSVTTEDTATYYCAGLRRDAYWGQGTLVTVSA
VL: DIQMTQTTSSLSASLGDRVTISCRASQDISNYLNWYQQKPDGTVKLLIYYTSRLHSGVPSRFSGSGSGTDYSLTISNLEQEDIATYFCQQGNTLPWTFGGGTKLEIKR
notes: Mouse monoclonal antibody from a hybridoma, screened as culture supernatant; also called cis hybridoma clone #74; cis pT231-tau mouse mAb

binding result: no binding
B2: Cis mAb-#113 (antibody, V domains shown)
VH: QVQLQQPGAELVKPGASVKMSCKASGYTFTSYWIHWVKQRPGQGLEWIGVIDPSDSYTRYNQKFKGKATLTVDTSSSTAYMQLSSLTSEDSAVYYCTTWEVDYWGQGTTLTVSS
VL: DVVMTQTPLSLPVSLGDQASISCRSSQSLVHSDGNTYLHWYLQKPGQSPKLLIYKVSNRFSGVPDRFSGSGSGTDFTLKISRLEAEDLGVYFCSQSTHVPWTFGGGTKLEIKR
notes: Mouse monoclonal antibody from a hybridoma, screened as culture supernatant; also called cis pT231-tau mouse mAb
